Assay results reported in publication doi:10.1101/2022.10.20.22281069 (medRxiv, 2022).

biological target: PCNA-WT (Proliferating Cell Nuclear Antigen, wild type) (human, UniProt P12004 1-261); assay: ITC
Sequence (P12004 whole entry): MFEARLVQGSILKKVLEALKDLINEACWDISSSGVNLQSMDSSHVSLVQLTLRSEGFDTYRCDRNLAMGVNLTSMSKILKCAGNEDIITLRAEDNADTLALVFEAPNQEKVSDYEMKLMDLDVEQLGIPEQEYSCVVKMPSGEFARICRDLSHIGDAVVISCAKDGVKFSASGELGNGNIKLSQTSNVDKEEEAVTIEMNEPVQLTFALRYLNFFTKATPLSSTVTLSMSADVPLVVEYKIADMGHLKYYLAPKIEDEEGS

binding result	Binder
binds	KANRQVSITGFFQRK [pol δ p66 PIP-box peptide]
binds	DKSGMKSIDTFFGVKNKKKIGKV [RNaseH2B PIP-box peptide]
binds	STQGRLDDFFKVTGSL [FEN1 PIP-box peptide]
